Laboratory results published in article PMC8396345.
pKd: −log10 of the molar value.

Tests used:
[1] = test system: norovirus GII.4 New Orleans VLP (VP1) (Norovirus GII.4 New Orleans); experiment: filter binding; settings: FRA: 1 nM 32P-aptamer, 0-1500 nM VLP, 60 min, each aptamer's original selection buffer (M1, M6-2, SMV19, SMV21: PBS pH 7.4; others in Table S1, not in material)
[2] = test system: norovirus GII.2 VLP (VP1) (Norovirus GII.2); settings: FRA: 1 nM 32P-aptamer, 0-1500 nM VLP, 60 min, each aptamer's original selection buffer (M1, M6-2, SMV19, SMV21: PBS pH 7.4; others in Table S1, not in material); cited from earlier work
[3] = test system: norovirus GII.3 VLP (VP1) (Norovirus GII.3); experiment: filter binding; settings: FRA: 1 nM 32P-aptamer, 0-1500 nM VLP, 60 min, each aptamer's original selection buffer (M1, M6-2, SMV19, SMV21: PBS pH 7.4; others in Table S1, not in material)
[4] = test system: norovirus GII.4 Sydney VLP (VP1) (Norovirus GII.4 Sydney); experiment: filter binding; settings: FRA: 1 nM 32P-aptamer, 0-1500 nM VLP, 60 min, each aptamer's original selection buffer (M1, M6-2, SMV19, SMV21: PBS pH 7.4; others in Table S1, not in material)
[5] = test system: norovirus P-domain (Norovirus GII.4); experiment: filter binding; settings: FRA: 1 nM 32P-aptamer, 0-1500 nM VLP, 60 min, each aptamer's original selection buffer (M1, M6-2, SMV19, SMV21: PBS pH 7.4; others in Table S1, not in material)
[6] = test system: norovirus P-domain (Norovirus GII.4); settings: FRA: 1 nM 32P-aptamer, 0-1500 nM VLP, 60 min, each aptamer's original selection buffer (M1, M6-2, SMV19, SMV21: PBS pH 7.4; others in Table S1, not in material); cited from earlier work
[7] = test system: norovirus GI.7 VLP (VP1) (Norovirus GI.7); experiment: filter binding; settings: FRA: 1 nM 32P-aptamer, 0-1500 nM VLP, 60 min, each aptamer's original selection buffer (M1, M6-2, SMV19, SMV21: PBS pH 7.4; others in Table S1, not in material)

Sequence | pKd [1] | pKd [2] | pKd [3] | pKd [4] | binding signal [5] | pKd [6] | pKd [7]
CACCAGTGTGTTGAGGTTTGAGCACACTGATAGAGTGTCA [SMV19] | 5.03 | 6.72 | – | – | – | – | –
CCATGTTTTGTAGGTGTAATAGGTCATGTTAGGGTTTCTG [SMV21] | 5.75 | 7.00 | 6.33 | 5.90 | – | – | –
GAAATTGGGTTCGGGTTTGGGTTGGGATTACTTAGCGATG [Buf-2] | 6.45 | – | 6.33 | 6.62 | 100% | 7.77 | –
GCTAGCGAATTCCGTACGAAGGGCGAATTCCACATTGGGCTGCAGCCCGGGGGATCC [AG3] | 5.99 | – | – | 6.50 | – | – | –
GTCTGTAGTAGGGAGGATGGTCCGGGGCCCCGAGACGACGTTATCAGGC [Beier] | 6.98 | – | 6.94 | 7.15 | – | – | 7.20
TGGGAAGAGGTCCGGTAAATGCAGGGTCAGCCCGGAGAG [M6-2] | 6.03 | – | – | 5.95 | – | – | –
TGTTTATGGGGATAAACGTATCTAATTCGTGTACTAATCA [M1] | 6.02 | – | – | 6.41 | – | – | –
